Data published in article PMC10319729 (2023).

T1: LGR5ΔCT (human LGR5 without the cytoplasmic C-terminal tail) on HEK293 cells (human, UniProt O75473 22-907)
T1 chain: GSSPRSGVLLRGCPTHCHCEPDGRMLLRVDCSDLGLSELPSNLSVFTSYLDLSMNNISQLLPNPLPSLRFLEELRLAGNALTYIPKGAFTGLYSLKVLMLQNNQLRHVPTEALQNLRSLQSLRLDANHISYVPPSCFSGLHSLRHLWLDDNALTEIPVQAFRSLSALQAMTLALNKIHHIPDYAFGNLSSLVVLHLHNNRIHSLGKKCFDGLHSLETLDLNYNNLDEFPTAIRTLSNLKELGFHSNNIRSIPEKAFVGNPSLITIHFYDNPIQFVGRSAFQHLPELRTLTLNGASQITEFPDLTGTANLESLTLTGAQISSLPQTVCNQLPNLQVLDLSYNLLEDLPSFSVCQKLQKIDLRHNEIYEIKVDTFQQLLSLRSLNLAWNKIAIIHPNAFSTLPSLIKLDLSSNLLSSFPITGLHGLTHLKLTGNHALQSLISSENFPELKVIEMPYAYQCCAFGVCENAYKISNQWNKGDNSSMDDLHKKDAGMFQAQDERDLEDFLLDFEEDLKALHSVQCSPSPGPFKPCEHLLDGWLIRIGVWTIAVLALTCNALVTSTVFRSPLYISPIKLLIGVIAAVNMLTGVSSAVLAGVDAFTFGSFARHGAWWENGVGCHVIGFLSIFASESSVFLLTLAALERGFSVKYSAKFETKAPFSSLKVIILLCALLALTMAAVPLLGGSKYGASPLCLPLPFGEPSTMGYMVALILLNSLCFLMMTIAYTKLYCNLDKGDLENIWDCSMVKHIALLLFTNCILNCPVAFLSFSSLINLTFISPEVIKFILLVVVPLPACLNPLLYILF

B1: R2Fu-mFc (RSPO2 furin domain fused to monomeric human IgG4-Fc, monovalent) (Fc fusion)
chain: NPICKGCLSCSKDNGCSRCQQKLFFFLRREGMRQYGECLHSCPSGYYGHRAPDMNRCARCRIENCDSCFSKDFCTKCKVGFYLHRGRCFDECPDGFAPLEETMECVE
B2: R2Fu-bFc (RSPO2 furin domain fused to wild-type IgG1-Fc, bivalent) (Fc fusion)
chain: B1 chain

Experiments:
[1] = molecular target: T1, LGR5ΔCT (human LGR5 without the …)
[2] = molecular target: LGR4 (HA-LGR4) over-expressed on HEK293 cells (UniProt Q9BXB1 25-951)

Binder | Kd [1] [nM] | Kd [2] [nM]
B1 | 2.3 | –
B2 | 1.8 | 9
